{"source": "patent US20200317791A1", "about": "(Janssen / Centocor, published 2020)", "binders": {"B1": {"name": "CW6B229 (antibody, V domains shown)", "VH": "QVQLQESGPGLVKPSETLSLTCTVSGNSIRSYYWSWIRQPAGKGLEWIGRIYISGNTNYNPSLKSRVTMSIDTSKNQFSLKLSSVTAADTAVFYCARLSGIDAFDIWGQGTMVTVSS", "VL": "DIQMTQSPSSLSASVGDRVTITCQASQDISNYLNWYQQKPGKAPKLLIYDASNLETGVPSRFSGSGSGTDFTFTISSLQPEDFATYYCQQYDNLPITFGQGTRLEIK", "notes": "also called CW6B229.001; CW6M229 (DNA ID)"}, "B2": {"name": "CW6B230 (antibody, V domains shown)", "VH": "B1 VH with R30S, S31N, S54T, I71L, F93Y", "VL": "B1 VL with S10T, I21F, S30T, N31K, N93D", "notes": "also called CW6B230.001; CW6M230 (DNA ID)"}, "B3": {"name": "CW6B237 (antibody, V domains shown)", "VH": "QVTLKESGPVLVKPTETLTLTCTVSGFSLSNARMGVSWIRQPPGKALEWLAHIFSHDEKFYSTFLKSRLTISKDTSKSQVVLMMTNMDPVDTATYYCARIILSSSGHDAFDIWGQGTMVTVSS", "VL": "AIQMTQSPSSLSASVGDRVTITCRASQDIRHNLGWYQQKPGKAPNLLIYAASSLQSGVPSRFSGSGSGTDFILTISSLQPEDFATFFCLQDYIYPLTFGGGTKVEIK", "notes": "also called CW6B237.001; CW6M237 (DNA ID)"}, "B4": {"name": "CW6B238 (antibody, V domains shown)", "VH": "B3 VH with S30N, I53M, H56S, S62R, F64S, M83T, I101S, S103Y, A109T, I112L", "VL": "B3 VL with H31N, N32T, I72T, F86Y, F87Y, I93D", "notes": "also called CW6B238.001; CW6M238 (DNA ID)"}}, "key": {"CW6W55.ECO.PP.002 [1]": {"target": "CW6W55.ECO.PP.002", "experiment": "SPR Biacore 8K, captured mAb; Kinetic fit not valid"}, "CW6W54.001": {"target": "CW6W54.001", "experiment": "SPR Biacore 8K, captured mAb; Kinetic fit not valid"}, "A24_A*24:02 [2]": {"target": "T1, A24_A*24:02 (human, UniProt A*24:02)", "T1 construct": "on LABScreen bead; also called HLA-A*24:02 (LABScreen class I bead)", "T1 heavy chain": "not shown", "experiment": "LABScreen beads"}, "CW6W56.ECO.PP.001": {"target": "CW6W56.ECO.PP.001", "experiment": "SPR Biacore 8K, captured mAb; Acceptable fit", "excerpt": "(§1) To further characterize the ability of the antibodies to differentiate between class I MHC molecules."}, "A24_A*24:02 [3]": {"target": "T1, A24_A*24:02", "experiment": "LABScreen beads"}, "CW6W55.ECO.PP.002 [4]": {"target": "CW6W55.ECO.PP.002", "experiment": "SPR Biacore 8K, captured mAb; Acceptable fit", "excerpt": "as §1"}, "[5]": {"target": "T2, HLA-Cw6/TRAT on K562-rhHLA-Cw6 cells loaded with TRAT peptide (human, UniProt P10321 25-366)", "T2 MHC heavy": "[…]", "T2 peptide": "TRATKMQVI", "experiment": "cell-based or functional assay"}, "A24_A*24:02 [6]": {"target": "T1, A24_A*24:02", "experiment": "LABScreen beads"}, "A24_A*24:02 [7]": {"target": "T1, A24_A*24:02", "experiment": "LABScreen beads"}}, "note": "Where a chain is given by its changes, count along the chain named. Read-outs that look alike come from different tables or passages of the source.", "data": [{"binder": "B1", "values": [{"measurement": "Kd", "setting": "CW6W55.ECO.PP.002 [1]", "value": 7.1, "unit": "nM"}, {"measurement": "Kd", "setting": "CW6W54.001", "value": 0.673, "unit": "nM"}, {"measurement": "koff", "setting": "CW6W54.001", "value": 0.000465, "unit": "s⁻¹"}, {"measurement": "kon", "setting": "CW6W54.001", "value": 691000, "unit": "M⁻¹ s⁻¹"}, {"measurement": "binding result", "setting": "A24_A*24:02 [2]", "value": "no binding (tested: 10 µg/ml)"}, {"measurement": "Kd", "setting": "CW6W56.ECO.PP.001", "value": 1.23, "unit": "nM"}, {"measurement": "koff", "setting": "CW6W56.ECO.PP.001", "value": 0.00127, "unit": "s⁻¹"}, {"measurement": "kon", "setting": "CW6W56.ECO.PP.001", "value": "1.03e+06", "unit": "M⁻¹ s⁻¹"}]}, {"binder": "B2", "values": [{"measurement": "binding result", "setting": "A24_A*24:02 [3]", "value": "no binding (tested: 10 µg/ml)"}, {"measurement": "Kd", "setting": "CW6W54.001", "value": 1.4, "unit": "nM"}, {"measurement": "koff", "setting": "CW6W54.001", "value": 0.000655, "unit": "s⁻¹"}, {"measurement": "kon", "setting": "CW6W54.001", "value": 467000, "unit": "M⁻¹ s⁻¹"}, {"measurement": "Kd", "setting": "CW6W56.ECO.PP.001", "value": 2.07, "unit": "nM"}, {"measurement": "koff", "setting": "CW6W56.ECO.PP.001", "value": 0.00295, "unit": "s⁻¹"}, {"measurement": "kon", "setting": "CW6W56.ECO.PP.001", "value": "1.42e+06", "unit": "M⁻¹ s⁻¹"}, {"measurement": "Kd", "setting": "CW6W55.ECO.PP.002 [4]", "value": 8.9, "unit": "nM"}, {"measurement": "koff", "setting": "CW6W55.ECO.PP.002 [4]", "value": 0.00655, "unit": "s⁻¹"}, {"measurement": "kon", "setting": "CW6W55.ECO.PP.002 [4]", "value": 737000, "unit": "M⁻¹ s⁻¹"}]}, {"binder": "B3", "values": [{"measurement": "IC50 (read off the curve)", "setting": "[5]", "value": "~0.3", "unit": "µg/mL"}, {"measurement": "binding result", "setting": "A24_A*24:02 [6]", "value": "no binding (tested: 10 µg/ml)"}]}, {"binder": "B4", "values": [{"measurement": "binding result", "setting": "A24_A*24:02 [7]", "value": "no binding (tested: 10 µg/ml)"}]}]}
